Here are results for one molecule from publication PMC9879999, “A phosphoinositide hub connects CLE peptide signaling and polar auxin efflux regulation” (Nature Communications, 2023).

The target in this experiment is T1, 6xHis-PBL34 (Arabidopsis thaliana, UniProt Q9LFP7 1-493).
T1 construct: also called 6x His-tagged PBL34 fusion protein; source: E. coli BL21(DE3)-VR2-pACYC-LamP, purified (HisPur cobalt resin); not shown: 6xHis, N-terminal, kept
T1 sequence (looked up): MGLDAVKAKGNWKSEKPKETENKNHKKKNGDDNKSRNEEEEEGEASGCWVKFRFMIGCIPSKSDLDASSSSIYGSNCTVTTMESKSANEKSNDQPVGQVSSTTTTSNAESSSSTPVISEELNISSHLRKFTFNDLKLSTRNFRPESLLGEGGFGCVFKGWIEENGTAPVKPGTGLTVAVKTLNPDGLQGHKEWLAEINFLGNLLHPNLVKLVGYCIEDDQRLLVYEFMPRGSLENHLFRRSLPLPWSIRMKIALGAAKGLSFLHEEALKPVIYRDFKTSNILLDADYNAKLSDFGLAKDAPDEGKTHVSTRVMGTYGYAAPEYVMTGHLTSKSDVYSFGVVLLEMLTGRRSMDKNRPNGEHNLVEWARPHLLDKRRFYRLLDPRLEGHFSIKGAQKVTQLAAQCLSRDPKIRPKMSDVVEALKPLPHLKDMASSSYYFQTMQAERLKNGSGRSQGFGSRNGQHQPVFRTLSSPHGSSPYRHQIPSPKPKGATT
Briefly: pull-down; in vitro pulldown with amylose beads; MBP fusion protein as bait, 6xHis-PBL34 detected by Western blot. The conditions noted are these: both partners purified. On the technique in general: Immunoblotting shows a protein as a band on a membrane.

B1: 6xHis-MBP-BRX (natural protein, Arabidopsis thaliana, UniProt Q17TI5 1-344, looked up)
chain: MFSCIACTKADGGEEVEHGARGGTTPNTKEAVKSLTIQIKDMALKFSGAYKQCKPCTGSSSSPLKKGHRSFPDYDNASEGVPYPFMGGSAGSTPAWDFTNSSHHPAGRLESKFTSIYGNDRESISAQSCDVVLDDDGPKEWMAQVEPGVHITFASLPTGGNDLKRIRFSREMFDKWQAQRWWGENYDKIVELYNVQRFNRQALQTPARSDDQSQRDSTYSKMDSARESKDWTPRHNFRPPGSVPHHFYGGSSNYGPGSYHGGPPMDAARTTTSSRDDPPSMSNASEMQAEWIEEDEPGVYITIRQLSDGTRELRRVRFSRERFGEVHAKTWWEQNRERIQTQYL
notes: source: E. coli BL21(DE3) Rosetta pLysS, purified (HisPur cobalt resin); not shown: MBP, N-terminal, kept
Take B1: the binding result is recorded as “binds”.
